For this data set, the system named is K4 kissing-loop RNA reporter. The experiment in a line: apparent KD of K4 kissing-loop reporter; higher = weaker reporter binding. The settings on record: Eterna round: R107. As to the method: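 RNA-MaP round R107: designed RNA switches with theophylline, tryptophan, arginine or FMN aptamers are transcribed on-chip within common flanks. They are titrated with a labelled K4 kissing-loop RNA reporter in RNA-MaP buffer (100 mM Tris pH 7.5, 80 mM KCl, 4 mM MgCl2), without ligand or with the indicated ligand. Median apparent KD per design.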

Setting [1] is: input ligand: theophylline 20 uM.
Where [2] appears, read: input ligand: tryptophan 2.4 mM.
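Also: bound reporter read as fluorescence of individual clusters on recovered sequencing chips by microscopy, with normalized cluster intensities fitted with a binding model.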

Turning to “UGAUUUAACUGAAGGAGCGGCAAUUGAUAAGUAAAUAUAGUGAUGUUAUAUAAGAGAGAGAGCCAGGUAGGUCGCAGAGGGAGGA [ExArgB.I]”, the “apparent KD of K4 kissing-loop reporter” value reads like this: (input ligand: FMN 200 uM) 205 nM; (input ligand: arginine 13.2 mM) 138 nM; (input ligand: none) 167 nM; under setting [1], 170 nM; under setting [2], 140 nM.
The like results for “AAUUUAGUGACGGCCGCCACUAGGGUGAUUUAUUUGUUUGAGUGAUGUUUUGAUGUUUGAUUUUGUAGGACCGGGUUAGGUGAUG [dddcmullin]” were, in that order, 354 nM, 304 nM, 363 nM, 326 nM and 271 nM.
The like results for “UGGAUAUCGUUUAGUCUGGUGAGGUCAGAUACCAGACUAGCGAUAGUCCCUUGGCAGCUGAUUAUGAUUGAGUGAUGUUCAAUCG [Theo A Ex t9a]” were, in that order, 179 nM, 154 nM, 175 nM, 180 nM and 180 nM.
In the same order, the values of “UUUAACGAGUGAUGUUCGAAAAGUAAUAGUUAGGAUAUCGUUUUUUCGAGAAGGAACUUCGAAGUGAUACGAAAGUAUCGCUUCG [FMN A 1]” are 180 nM, 359 nM, 287 nM, 351 nM and 181 nM.
For the sequence “AUUUAAUUAACUGAUACCAGACUUUUUGUUUUGAUAAUUACUAGUGAUGUUAGUGUUUCUGUCCCUUGGCAGCAGUAUCUACUUA [JR_ExcTheophyB_Sub017]”, the “apparent KD of K4 kissing-loop reporter” value amounted to 121 nM (input ligand: FMN 200 uM); 177 nM (input ligand: arginine 13.2 mM); 122 nM (input ligand: none); 209 nM under setting [1]; 106 nM under setting [2].
The like results for “GGGAGUAGUGCGGCCGCCACUGUGAAAGAAGAAGAAUAUAGUGAUGUUAUAUAGGAAAGGAAGAAUAGGACCGGGCAUUAGAUUU [SSTRyptB.K]” were, in that order, 213 nM, 226 nM, 260 nM, 235 nM and 183 nM.
As for “AAAUAGAUCAGUCACCCAGUGAUGUUGGAAGGAGCGUGCGAAAGCACAGGUAGGUCGCCAAAAUAAAAGUGGCUGAUCAAAAUAA [#SwitchBubble 5 #K4Early]”, the “apparent KD of K4 kissing-loop reporter” value runs as follows: (input ligand: FMN 200 uM) 336 nM; (input ligand: arginine 13.2 mM) 300 nM; (input ligand: none) 389 nM; under setting [1], 526 nM; under setting [2], 226 nM.
The like results for “GUAGCACUUGACAGUGAUGUUGUCAAGGGCAAGGAUAUCACCUCAGUGAGAAGGUGUCCUUGAUAACUGCUACGGGAAUAUCCCA [Omei KL FMN A Exc D v7]” were, in that order, 603 nM, 136 nM, 152 nM, 156 nM and 168 nM.
On to “GUCUCGAGUGAUGUUCGGGUCGAUUGGGAAGGAGCGCCCGGAAGGGCAGGUAGGUCGCCCGGGCCGCGCGGGAAACCGCGCGUCC [#2 Same State - Arginine A Attempt #8 (HarryS)]”, for which the “apparent KD of K4 kissing-loop reporter” value (input ligand: FMN 200 uM) worked out at 208 nM; the “apparent KD of K4 kissing-loop reporter” value (input ligand: arginine 13.2 mM) came out at 110 nM; the “apparent KD of K4 kissing-loop reporter” value (input ligand: none) was 194 nM; the “apparent KD of K4 kissing-loop reporter” value under setting [1] is 140 nM; the “apparent KD of K4 kissing-loop reporter” value under setting [2] turned out to be 154 nM.
The like results for “UCAUGAAAGACGGCCGCCACUGAUGCUGGAGUGAUGUUUCGGACAUAGUAGAGUGAUGUUCUGCGCAGGACCGGGUCGUCAUGAA [KL-SSTryp-B10 #double Kiss]” were, in that order, 132 nM, 64.6 nM, 134 nM, 130 nM and 62 nM.
In the same order, the values of “AGUGUUAGGUUAGAUACCAGCCGUCUGUGAGUAACCCACAGACCGCCAGUGAUGUUGGCAGGCCCUUGGCAGCUAACAGGACAGA [Anesarerza]” are 211 nM, 226 nM, 210 nM, 152 nM and 211 nM.
In the same order, the values of “AAGAGCCUCAAGAGGCAGUAUCUGCCUCAACGAGGACCGGUACGGCCGCCACUCGAAUAAUAGAGUGAUGUUCUAAGAGGCUCAA [AK8 SS Tryptophan A]” are 710 nM, 558 nM, 586 nM, 548 nM and 487 nM.
As to “UGGAGUUGACGAAAAGUCAACUCCUGAGAAGGAGCGGACGAAAGUCCAGGUAGGUCGCUCACUACCAGUGAUGUUGGUAAUUCAA [#OpenEnded 3]”, the “apparent KD of K4 kissing-loop reporter” value is, setting by setting: (input ligand: FMN 200 uM) 269 nM; (input ligand: arginine 13.2 mM) 284 nM; (input ligand: none) 277 nM; under setting [1], 272 nM; under setting [2], 234 nM.
In the same order, the values of “AGACUACCACACUGUCAAUAGACAGUGAACUAGGAUAUGCUGAUAAGCAGAAGGAGUGAUGUUCCCAGGUAGUCAAUAAAAUAAU [FmnAX 13 C66]” are 170 nM, 185 nM, 231 nM, 331 nM and 223 nM.
The like results for “AAGAGGUAGGCGGCCGCCACUUGUUGUGAACACAUACGAGCCAGUGAUGUUGGUAUUGUGGGCGGAAGGACCGGGCCUACCUGAA [Exclusion - Tryptophan B (Freestyle 20)]” were, in that order, 317 nM, 304 nM, 320 nM, 328 nM and 386 nM.
The like results for “CUUAGGAGUGGUGUUGAUUAGGGAGCGGAAGGAGCGCCAAUGAUGGCAGGUAGGUCGCCGGAAUAUAGUGAUGUUAUAUAGAGGG [ExArgA.Q]” were, in that order, 273 nM, 252 nM, 592 nM, 290 nM and 222 nM.
Take “AGGAUGUAGUGAUGUUAUAUAAGAAGUAAACGAGGACCGGUACGGCCGCCACUCGAAGCGGCUACUAGCGUGUUGCGAGGUGCGC [ExTryptoA.Cd]”: the “apparent KD of K4 kissing-loop reporter” value by setting is: (input ligand: FMN 200 uM) 370 nM; (input ligand: arginine 13.2 mM) 324 nM; (input ligand: none) 229 nM; under setting [1], 230 nM; under setting [2], 197 nM.

Values taken from the supplement of paper PMC9170038.
